Consider one molecule from PMC12025393, “Neuregulin-1 (NRG1) Binds to the Allosteric Binding Site (Site 2) and Suppresses Allosteric Integrin Activation by Inflammatory Cytokines: A Potential Mechanism of Anti-Inflammatory and Anti-Fibrosis Action of NRG1” (Cells, 2025).

No end group written: not given here.

For the assay, the target named is T1, WT NRG1 EGF-like domain.
T1 construct: also called NRG1 EGF domain; neuregulin-1; source: endotoxin-free E. coli BL21 (DE3) pLysS Clear-coli, purified (Ni-NTA in 8M urea, re-folded)
T1 chain: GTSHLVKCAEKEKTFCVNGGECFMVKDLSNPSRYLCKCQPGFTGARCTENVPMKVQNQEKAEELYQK
Briefly: ELISA; NRG1 (20 μg/mL in PBS) immobilised to wells, blocked with 0.1% BSA; peptides fused to GST in PBS/Tween20 (0.05%), 1 h at room temperature; HRP-conjugated anti-GST antibody; signals with scrambled β3 site 2 peptide subtracted. To be noted: both partners purified. A general note: An ELISA detects its analyte on a solid surface through an enzyme-linked reagent.

B1: β3 specificity-determining loop (SDL) peptide fused to GST (peptide)
chain: DKPVSPYMYISPPEALENPCYDMKTTCLPMF
modifications: not fully specified (N-terminus); cysteine pairing not given here; also: fused to GST
notes: cDNA fragment subcloned into the BamHI/EcoRI site of pGEX2T; also called β3 SDL peptide; β3-SDL peptide; source: E. coli BL21, purified (Glutathione Sepharose)
Consider B1, for which the binding result is recorded as “binds”.
